Biological target: histone H4 (X. laevis), as in the H3K4Cme3 nucleosome (X. laevis, UniProt P62799 1-103)
Assay: cryo-EM structure

binding result: binds
B1: H. sapiens Chromodomain Helicase DNA Binding Protein 1 (CHD1 residues 1-1327 lacking the CHCT domain) (enzyme)
chain: MNGHSDEESVRNSSGESSQSDDDSGSASGSGSGSSSGSSSDGSSSQSGSSDSDSGSESGSQSESESDTSRENKVQAKPPKVDGAEFWKSSPSILAVQRSAILKKQQQQQQQQQHQASSNSGSEEDSSSSEDSDDSSSEVKRKKHKDEDWQMSGSGSPSQSGSDSESEEEREKSSCDETESDYEPKNKVKSRKPQNRSKSKNGKKILGQKKRQIDSSEEDDDEEDYDNDKRSSRRQATVNVSYKEDEEMKTDSDDLLEVCGEDVPQPEEEEFETIERFMDCRIGRKGATGATTTIYAVEADGDPNAGFEKNKEPGEIQYLIKWKGWSHIHNTWETEETLKQQNVRGMKKLDNYKKKDQETKRWLKNASPEDVEYYNCQQELTDDLHKQYQIVERIIAHSNQKSAAGYPDYYCKWQGLPYSECSWEDGALISKKFQACIDEYFSRNQSKTTPFKDCKVLKQRPRFVALKKQPSYIGGHEGLELRDYQLNGLNWLAHSWCKGNSCILADEMGLGKTIQTISFLNYLFHEHQLYGPFLLVVPLSTLTSWQREIQTWASQMNAVVYLGDINSRNMIRTHEWTHHQTKRLKFNILLTTYEILLKDKAFLGGLNWAFIGVDEAHRLKNDDSLLYKTLIDFKSNHRLLITGTPLQNSLKELWSLLHFIMPEKFSSWEDFEEEHGKGREYGYASLHKELEPFLLRRVKKDVEKSLPAKVEQILRMEMSALQKQYYKWILTRNYKALSKGSKGSTSGFLNIMMELKKCCNHCYLIKPPDNNEFYNKQEALQHLIRSSGKLILLDKLLIRLRERGNRVLIFSQMVRMLDILAEYLKYRQFPFQRLDGSIKGELRKQALDHFNAEGSEDFCFLLSTRAGGLGINLASADTVVIFDSDWNPQNDLQAQARAHRIGQKKQVNIYRLVTKGSVEEDILERAKKKMVLDHLVIQRMDTTGKTVLHTGSAPSSSTPFNKEELSAILKFGAEELFKEPEGEEQEPQEMDIDEILKRAETHENEPGPLTVGDELLSQFKVANFSNMDEDDIELEPERNSKNWEEIIPEDQRRRLEEEERQKELEEIYMLPRMRNCAKQISFNGSEGRRSRSRRYSGSDSDSISEGKRPKKRGRPRTIPRENIKGFSDAEIRRFIKSYKKFGGPLERLDAIARDAELVDKSETDLRRLGELVHNGCIKALKDSSSGTERTGGRLGKVKGPTFRISGVQVNAKLVISHEEELIPLHKSIPSDPEERKQYTIPCHTKAAHFDIDWGKEDDSNLLIGIYEYGYGSWEMIKMDPDLSLTHKILPDDPDKKPQAKQLQTRADYLIKLLSRDLAKKEALSGAG

Source: article PMC12126155 (Molecular cell, 2025)
